Assay results published in US20110293610A1 (published 2011).
Each block holds one binder with its values, some of them ahead of it.

What was measured:
[1] = biological target: T1, B Lymphocyte Stimulator, soluble form (human) (human, UniProt Q9Y275 134-285, biotinylated with NHS-biotin where used as biotinylated B Lymphocyte Stimulator); assay: phage ELISA
T1 construct: Coated on plastic, captured on streptavidin plates, amine-coupled to a CM5 chip or free in solution, depending on the assay; also called BLyS; immobilized B Lymphocyte Stimulator

LIGHT = LIGHT (human, UniProt O43557 74-240, limits assumed); assay: phage ELISA
TNF-alpha = biological target: T2, TNF-alpha (human, UniProt P01375 77-233); assay: phage ELISA
T2 construct: also called TNFα; TNF-α

TNF-beta = biological target: T3, TNF-beta (human, UniProt P01374 35-205); assay: phage ELISA
T3 construct: also called TNFβ; Tumour Necrosis Factor-beta
T3 sequence (looked up): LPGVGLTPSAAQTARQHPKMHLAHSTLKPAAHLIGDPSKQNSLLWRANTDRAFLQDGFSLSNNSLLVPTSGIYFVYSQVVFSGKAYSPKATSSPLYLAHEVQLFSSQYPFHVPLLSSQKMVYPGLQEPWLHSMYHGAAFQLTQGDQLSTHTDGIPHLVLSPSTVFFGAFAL

TRAIL = biological target: T4, TRAIL (human, UniProt P50591 114-281); assay: phage ELISA
T4 construct: also called TNF-related apoptosis inducing ligand

[2] = biological target: T5, biotinylated B Lymphocyte Stimulator, soluble form (human, UniProt Q9Y275 134-285, biotinylated with NHS-biotin, molar ratio 20:1 biotin:protein); assay: phage scFv, receptor binding inhibition on IM9 cells
T5 construct: also called bio-B Lymphocyte Stimulator; free B Lymphocyte Stimulator
Protocol: All of the unique phage scFvs from panel 2 were assessed for their ability to inhibit B Lymphocyte Stimulator binding to its cognate receptor on IM9 cells. The biotinylation of B Lymphocyte Stimulator, maintenance of IM9 cells and receptor binding inhibition assay were performed as described in Example 3.

T4 sequence (P50591 114-281 limits assumed): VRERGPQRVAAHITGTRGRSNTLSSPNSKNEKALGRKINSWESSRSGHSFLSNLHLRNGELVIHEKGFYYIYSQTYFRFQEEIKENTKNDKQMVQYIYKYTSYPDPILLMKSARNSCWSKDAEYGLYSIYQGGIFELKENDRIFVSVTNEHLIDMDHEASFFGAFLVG
T2 sequence (P01375 77-233 limits assumed): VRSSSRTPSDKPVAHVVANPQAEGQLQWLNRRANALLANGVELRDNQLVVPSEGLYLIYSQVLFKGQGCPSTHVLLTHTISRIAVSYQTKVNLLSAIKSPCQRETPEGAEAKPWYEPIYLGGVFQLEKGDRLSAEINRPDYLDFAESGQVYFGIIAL
LIGHT, sequence (O43557 74-240 limits assumed): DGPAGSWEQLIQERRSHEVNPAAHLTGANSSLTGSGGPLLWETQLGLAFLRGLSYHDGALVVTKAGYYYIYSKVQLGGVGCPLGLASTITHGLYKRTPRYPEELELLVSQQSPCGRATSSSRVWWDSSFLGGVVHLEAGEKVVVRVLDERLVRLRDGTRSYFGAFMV

- binding result [1]: binds
- binding result (LIGHT): no binding
- binding result (TNF-alpha): no binding
- binding result (TNF-beta): no binding
- binding result (TRAIL): no binding
B1: I068C08 (scFv)
scFv: QVQLQQSGAEVKKPGSSVKVSCQASGGSFSREGISWVRQAPGHGLEWMGRIIPVLGVADYAQKFQGRVKISVDRLTSVAYMELTSLRFEDTAVYYCAREGMNDFINSHHYYTMDAWGQGTLVTVSSGGGGSGGGGSGGGGSAQAVLTQPSSVSGAPGQRVTISCTGSSSNIGAGYDVHWYQQLPGTAPKLLIYGNSNRPSGVPDRFSGSKSGTSASLAITGLQAEDEADYYCQSYDSSLSGSVFGGGTKLTVLG

- binding result [2]: binds
B2: I068C08 (scFv)
scFv: QVQLQQSGAEVKKPGSSVKVSCQASGGSFSREGISWVRQAPGHGLEWMGRIIPVLGVADYAQKFQGRVKISVDRLTSVAYMELTSLRFEDTAVYYCAREGMNDFINSHHYYTMDAWGQGTLVTVSSGGGGSGGGGSGGGGSAQAVLTQPSSVSGAPGQRVTISCTGSSSNIGAGYDVHWYQQLPGTAPKLLIYGNSNRPSGVPDRFSGSKSGTSASLAITGLQAEDEADYYCQSYDSSLSGSVFGGGTKLTVLG

- binding result [2]: binds
B3: I068B04 (scFv)
scFv: QVQLVQSGAEVKKPGSSVKVSCKASGGTVSSRTISWVRQAPGQGLEWMGGSLPPSGAPIYAQKFQGRVAITADALTNTAFMELRSLKSDDTAVYYCARDQGRYLDLWGRGTLVTVSSGGGGSGGGGSGGGGSALPVLTQPPSASATPGQRVTISCSGSSSNIGSNYVYWYQQLPGTAPKVLIYRNNQRPSGVPDRFSGSRSGTSASLAISGLRSEDEADYYCATWDDSLSGPVFGGGTKVTVLG

- binding result [2]: binds
B4: I065D04 (scFv)
scFv: QVQLQESGPGLVKPSETLSLTCTVSGGSISSGYYWGWVRQPPGQGLEWIGSIYHSGSTYHNPSLKSRVTISMDTSKNQFSLNLNSVTAADTAVYYCARGKGYYDILTGYYRDNWFDPWGRGTLVTVSSGGGGSGGGGSGGGGSQSVLTQPASVSGSPGQSITISCTGTSSDVGGYNYVSWYQQHPGKAPKLMIYEGSKRPSGVSNRFSGSKSGNTASLTISGLQAEDEADYYCSSYTTRSTRVFGGGTKLTVLG

- binding result [2]: binds
B5: I003C06 (scFv)
scFv: QVQLVQSGAEVKKPGSSVKVSCRASGGSFNHAISWVRQAPGRGLEWMGGILPMYGTANYAQKFQGRVTITADKLTNTVYMDLSRLRYEDTAVYYCARELGLSIVGATTGALDMWGKGTLVTVSSGGGGSGGGGSGGGGSALPVLTQPPSVSVAPGQTATLTCGGTNFGRQSVHWYQQKPGQAPVLAIYHDDVRPSGIPERLSGSKSGNTATLTISRVEAGDEAAYYCQVWDSGSDVVVFGGGTKLTVLG

- binding result [2]: binds
B6: I073F04 (scFv)
scFv: QVQLQQSGAEVKKPGSSVKVSCKASGGTFRSYAFSWVRQAPGQGLEWMGYIVPVFGTATYAQNFQGRVTITADELTTTAFMELSSLTSEDTAVYYCARSLATRPLGMDVWGRGTTVTVSSGGGGSGGGGSGGGGSQSVLTQPASVSGSPGQSITISCTGTSSDVGGYNYVSWYQQHPGKAPKLMIYEGSKRPSGVSNRFSGSKSGNTASLTISGLQAEDEADYYCSSYTTRSTRVFGGGTKLTVLG

- binding result [2]: binds
B7: I026C04 (scFv)
scFv: QVQLVQSGAEVKKPGSSVKVSCRASGGSFNHAISWVRQAPGRGLEWMGGILPMYGTANYAQKFQGRVTITADKLTNTVYMDLSRLRYEDTAVYYCARELGLSIVGATTGALDMWGKGTLVTVSSGGGGSGGGGSGGGGSAQSVLTQPPSVSAAPGQKVTISCSGSSSNIGNNYVSWYQQIPGTAPKLLIYENNKRPSGIPDRFSGSKSGASATLDITGLQTGDEADYYCGTWHSSQVVFGGGTKLTVLG

- binding result [2]: binds
B8: I025B09 (scFv)
scFv: QVHLVQSGAEVKKPGSSVKVSCRASGGSFNHAISWVRQAPGRGLEWMGGILPMYGTANYAQKFQGRVTITADKLTNTVYMDLSRLRYEDTAVYYCARELGLSIVGATTGALDMWGKGTLVTVSSGGGGSGGGGSGGGGSAQSVLTQPPSVSAAPGQKVTISCSGSSSNIGNNYVSWYQQIPGTAPKLLIYENNKRPSGIPDRFSGSKSGASATLDITGLQTGDEADYYCGTWHSSQVVFGGGTKLTVLG

- binding result [2]: binds
B9: I025B06 (scFv)
scFv: QVQLVQSGAEVKKPGSSVKVSCRASGGSFNHAISWVRQAPGRGLEWMGGILPMYGTANYAQKFQGRVTITADKLTNTVYMDLSRLRYEDTAVYYCARELGLSIVGATTGALDMWGKGTLVTVSSGGGGSGGGGSGGGGSAQSVLTQPPSVSAAPGQKVTISCSGSSSNIGNNYVSWYQQIPGTAPKLLIYENNKRPSGIPDRFSGSKSGASAALDITGLQTGDEADYYCGTWHSSQVVFGGGTKLTVLG

- binding result [2]: binds
B10: I075A02 (scFv)
scFv: QVQLVQSGAEVKKPGSSVKVSCRASGGSFNHAISWVRQAPGRGLEWMGGILPMYGTANYAQKFQGRVTITADKLTNTVYMDLSRLRYEDTAVYYCARELGLSIVGATTGALDMWGRGTLVTVSSGGGGSGGGGSGGGGSAQSVVTQPPSASGTPGQRVTVSCSGGRSNIGSNTVSWYQQLPGTAPKLLIYSNDERPSGVPDRFSGSNSGTSASLAISGLQSEDEADYYCAAWDDSLNGVAFGGGTKLTVLG

- binding result [2]: binds
B11: I071B03 (scFv)
scFv: QVQLQQSGAEVKKPGASVKVSCKASGYTFTKYTMHWVRQAPGQGPEWMGWINGGSGDTKYSRKFQGRVTITKDTSASAAYMELSSLGSEDTALYYCARATYDPLTGYSFDGFDIWGQGTMVTVSSGGGGSGGGGSGGGGSQSVLTQPASVSGSPGQSITISCTGTSSDVGGYNYVSWYQQHPGKAPKLMIYEGSKRPSGVSNRFSGSKSGNTASLTISGLQAEDEADYYCSSYTTRSTRVFGGGTKLTVLD

- binding result [2]: binds
B12: I078D02 (scFv)
scFv: QVQLQQSGAEVKKPGASVKVSCKASGYTFTSYGISWVRQAPGQGLEWMGWISAYNGNTNYAQKLQGRVTMTTDTSTSTAYMELRSLRSDDTAVYYCARVYYDILTGYNLFFDYWGKGTMVTVSSGGGGSGGGGSGGGGSQSVLTQPASVSGSPGQSITISCTGTSSDVGGYNYVSWYQQHPGKAPKLMIYEGSKRPSGVSNRFSGSKSGNTASLTISGLQAEDEADYYCSSYTTRSTRVFGGGTKLTVLG

- binding result [2]: binds
B13: I078H08 (scFv)
scFv: QVQLVQSAAEVKKPGASVKVSCKASGYTFTSYGISWVRQAPGQGLEWMGWISAYNGNTNYAQKLQGRVTMTTDTSTSTAYMELRSLRSDDTAVYYCARVYYDILTGYNLFFDYWGRGTTVTVSSGGGGSGGGGSGGGGSQSVLTQPASVSGSPGQSITISCTGTSSDVGGYNYVSWYQQHPGKAPKLMIYEGSKRPSGVSNRFSGSKSGNTASLTISGLQAEDEADYYCSSYTTRSTRVFGGGTKLTVLG

- binding result [1]: binds
- binding result (LIGHT): no binding
- binding result (TNF-alpha): no binding
- binding result (TNF-beta): no binding
- binding result (TRAIL): no binding
B14: I069B07 (scFv)
scFv: QVQLVQSGAEVKKPGASVKVSCKASGYTFTSYGISWVRQAPGQGLEWMGWISAYNGNTNYAQKLQGRVTMTTDTSTSTAYMELRSLRSEDTAVYYCARMEYDILTGYYGGYFDYWGQGTMVTVSSGGGGSGGGGSGGGGSQSVLTQPASVSGSPGQSITISCTGTSSDVGGYNYVSWYQQHPGKAPKLMIYEGSKRPSGVSNRFSGSKSGNTASLTISGLQAEDEADYYCSSYTTRSTRVFGGGTKLTVLG

- binding result [2]: binds
B15: I078D08 (scFv)
scFv: QVNLRESGGGLVQPGGSLRLSCAASGFTFSSYWMSWVRQAPGKGLEWVANIKQDGSEKYYVDSVKGRFTISRDNSKNTLYLQMNSLRAEDTAVYYCARDAQSYYDILTGYQSYAFDIWGQGTTVTVSSGGGGSGGGGSGGGGSSELTQDPAVSVALGQTVRITCQGDSLRSYYTNWFQQKPGQAPLLVVYAKNKRPSGIPDRFSGSSSGNTASLTITGAQAEDEADYYCHSRDSSGNHVLFGGGTKLTVLG

- binding result [1]: binds
- binding result (LIGHT): no binding
- binding result (TNF-alpha): no binding
- binding result (TNF-beta): no binding
- binding result (TRAIL): no binding
B16: I068F03 (scFv)
scFv: EVQLVQSGADVKKPGASVKVSCKASHYPFTTYGVSWVRQAPGQGLEWMGWISNYNGHTRYAPKFQGRVTLTTDTLTNTAFMELKSLTSDDTAIYYCARAGNEYGHTERPADYWGKGTMVTVSSGGGGSGGGGSGGGGSAQAVLTQPSSVSGAPGQRVTISCTGSSSNIGAGYDVHWYQQLPGTTPKLLISRNNNRPPGVPDRFSGSKSGTSASLAITGLQAEDEADYYCQSYDTTLRGWVFGGGTKVTVLG

- binding result [2]: binds
B17: I068F03 (scFv)
scFv: EVQLVQSGADVKKPGASVKVSCKASHYPFTTYGVSWVRQAPGQGLEWMGWISNYNGHTRYAPKFQGRVTLTTDTLTNTAFMELKSLTSDDTAIYYCARAGNEYGHTERPADYWGKGTMVTVSSGGGGSGGGGSGGGGSAQAVLTQPSSVSGAPGQRVTISCTGSSSNIGAGYDVHWYQQLPGTTPKLLISRNNNRPPGVPDRFSGSKSGTSASLAITGLQAEDEADYYCQSYDTTLRGWVFGGGTKVTVLG
